Test results as given in the DeepSol protein solubility set.

assay: soluble on expression in E. coli; label from the status in PepcDB or PDB records

Soluble on expression in E. coli, not soluble:
MNLDKPLLPGQVIGIIGGGHLAKMMALSAREMGFRVGVLDPQIDCPAAQVADWQLLGAYNDPEALEKLAKRAQVITYEFEHADVDALTAIQHLANIPQGTDILAITQDRLMEKSFLEDNNIVIAPYATIVSPTDIQEAIDGIGYPCILKNTRGEGRYVLHSTSDLAPSMNLLREGTCVLEAWIPYEKELSVLISGNGRGEFATFPVVETIKKERKLHETIAPARIDDEVSGELQRIAKVIAKAVGLVGTLSIEMFYTETGGIYVNKILPRPEDAGNFSIDACSFSQYDTHIRGLCNWPMPTIQLLSEAVTVNVLGNEAYETMDIINEHPDWHFHYYGHSEAKAQRAMGHITILTKEIDETLEEIKETKIWS
MNLDLTAQKVRLSWKDILWGYGNKYLGWADVAAYARKMTLSDHDERVFKLSLINKSNILELKPVLEDLASEMRDYSPKNWLYVLLSDVFHRKEEFEDPLGEVEKIYADFDYPEEIESFVRYMPPKDGYIPSAHTYEENIARLYSHWEHYLNNGGGQG
MNLDTPLADGLERAKRFEQGLQQVVLGQERPIRLLTLAVFARGHALLEGGVGVGKTTLLRAVARGIGGDYERIEGTIDLMPNDLVYYTYLDEQGRPGVAPGPLLKHGEQLSIFFFNEINRARPQVHSLLLRVMAERSVSAFNREYRFPYLQVFADRNRVEKEETFELPAAARDRFMLEIAIEPPADPAHIDQILFDPRFYDPDRLVASAPADTLSFRELNGIAEALQGGIHVSARLRSYVQDLWRATRRPEDFGIALHEADSGDMIEAGSSPRGMSYLVRLARVQAWLSGRDRVEPEDVQYVFAPAVGHRIFLKPVYEYRRAELIPELVGKLIRRIAAPLEHHHHHH
MNLMDLANEHDALILAHNYQTPEIQDVAHHVGDSLALAKIAAESQASTIVLCGVYFMAETTKILSPEKRVIIPEPEAGCSLASSITAEQLRAWKAEHPEAAVVAYVNTTAEVKALSDVCCTSSNAVRVVESIDPDRDILFLPDQFLGAHVQRETGRKNIHVWLGECHVHADISPTHITEMAHNNPQADLYVHPECGCTTSALWLASQGDIPQARILSTGGMMEAARKTAASTVLVATEIGMLHQLRKANTATDFIPVNPYAACPFMQMITMEKLEKALVEGHHEVHVDPVLAQRARGAVEAMITL
MNLNIDWSKDFQEFQEILNSGIHPEWLYCAKANLVLEPAYTGEGKQFFSTQDIIYASKIIPFFLEHHHHHH
MNLNYKFERLYRVLFNEEMFYVAYQNIYSKTGNMTAGADGKTIDGMSIDRVEQLIGSLKNETYQPNPSKRTYIPKKNGKKRPLGIPSFDDKLVQEVVRMILEAIYEGSFEHTSHGFRPKRSCHTALIDIQKTFTAVKWFIEGDIKGFFDNINHDVLINILRERIADERFLRLIRKFLNAGYVEDWVFHRTYSGTPQGGIISPILANIYLDKFDKYIKEYINRFNKGVTRKGDARYKLYEQRRYRLAKKLKNEKDVKVRKQMTAEIKRLREERNNYPARNEMDSSIKRLKYVRYADDFLIGITGNLEDCKTVKEDIKNYLNEALKLELSDEKTLITNAQKPAKFLGYDVFIRRCNDLRKDKYGKTVRAFGHKPVLYLNFETMRKKLFDYKAARIAVVNGKEVWKSIVRTYMLNLDDLEIVSQFNAEIRGFYNYYSIANNSYVINSFYHIMSYSMYKVFANKYKSSVKKILLKYKKNKVFQVAYENSKGKTLYQSFYHDGFKRKKVAGNIYCDTIPRTVSITGGRNSLMERLKLQVCELCGATDKLEMHHVRKLKDLKGKSDWEKKMIARRRKTLAVCSKCHAKIDPDRRIRLNLEHHHHHH
MNLVHTPNANRLHIALFGKRNSGKSSLINALTGQDTALVSDTPGTTTDSVQKAMEIHGIGPCLFIDTPGFDDEGELGNRRIERTWKAVEKTDIALLLCAGGGSAEETGEPDFTEELHWLEQLKAKNIPTILLINKADIRKNTASLAIRIKETFGSQPIPVSAKEKTGVELIRQAILEKLPEDFDQQSITGSLVTEGDLVLLVMPQDIQAPKGRLILPQVQTMRELLDKKCLIMSCTTDKLQETLQALSRPPKLIITDSQVFKTVYEQKPEESRLTSFSVLFAGYKGDIRYYVKSASAIGSLTESSRVLIAEACTHAPLSEDIGRVKLPHLLRKRIGEKLSIDIVAGTDFPQDLTPYSLVIHCGACMFNRKYVLSRIERARLQNVPMTNYGVAIAFLNGILNQIEYLEHHHHHH
MNLYSLLLSLITGCFLLAQGGTSFSSPVETEKSAVTAQSILEKADEIRFPQDSFQVNVAIRTAAPDHAEDLYRYQVLSKGNENSIVMITEPASERGQAILMKGRDLWVFMPSVSQPIRLSLSQRLTGQVANGDIARANFTGDYHPQLLRNESIDDEDYYVLELTGIDRSVTYQKVLLWVNQSNFRPYKAEFYSVSGRLLKTSRYENFDNILGEMRPTRIIMEDALKSGEVSVLDYSDMKLRDLPDKIFTKDYLKRLE
MNNIPVEIRLLKNRTVLVLTYGDEPKNLPAEFLRVYSPSAEVRGHGVGQDVLQTGKADVQIADLQPVGQYALKISFSDGHDSGLYDWAYLHRLAYGYDAMWQEYLDKLAAAGASRFEEK
MNNKKPVCAEGMVKMEKKSLLILGTASHVGKSSVVTAICRILSRSYRVAPFKAQNMSLNSWITKDGKEIGIAQAIQAKAAGTEPTADMNPVLLKPKGDCVSQVVLLGEPYADKSAGQYYDSIEEMHAVLKGALERLWKEHDIIVMEGAGGAAEINLYERDIVNVGTARLTKAPIILVGDIERGGVFASLYGTIALLPEDVRKNVKGFIINKFRGDIEILRPGLKQLEDKTGIPVLGVLPHFKLRIPSEDSVSLGDKEDSKAEKEIEVAVIRLPRISNFTDFEPLEGLVKVRYVDINEELGNPDAIMIPGTKNTVNDLLDLRASGMDKKIQAFKGKVPIFGICGGYQMLGRTIFDSGVENGVEAEFEGLGLLDIGTRFGEYKKRTVQVTKKVNGYGPILRPIDGEEIKGYEIHMGVTDSNRTVFGDDGAIDEDGFVIGTYLHGLFDNRNIRNALVRYLYEKKGLEYEPDEAISENDAYEELANVVEQNIDMEKLFEIAGV
MNNLIRLRDGVAEVCRDDPWQLLRELPDALPPGPLLLPLAAWLERRGEAGAAAPWLAPDDEVEALLPHFAELPLIAVDFPSFRDGRGYSLAYLLRVRLGWSGELRAVGDVLRDQLSHMRQCGFDAFAVREDKNVEDALKGLAGLSVLYGRSAIEPRPLFRRR
MNNREKEILAILRRNPLIQQNEIADMLQISRSRVAAHIMDLMRKGRIKGKGYILTEQEYCVVVGTINMDIRGMADIRYPQSASHPGTIHCSAGGVGRNIAHNLALLGRDVHLLSVIGDDFYGEMLLEETRRAGVNVSGCVRLHGQSTSTYLAIANRDDQTVLAINDTHLLEQLTPQLLNGSRDLLRHAGVVLADCNLTAEALEWVFTLADEIPVFVDTVSEFKAGKIKHWLAHIHTLKPTLPELEILWGQAITSDADRNTAVNALHQQGVQQLFVYLPDESVYCSEKDGEQFLLTAPAHTTVDSFGADDGFMAGLVYSFLEGYSFRDSARFAVACAAISRASGSLNNPTLSADNALSLVPMV

Soluble on expression in E. coli, soluble:
MNKSNNEPFNQVLDKHLSRRNFVKSGLGLGAMTAFAGMGLTGCGSDSSSSPIPVDPVPPLPPTKSSAKLNFTSVKGARLNAVVVPEGYSAQVLAPWGTPLNAKAAPWKADGSNTADDQANSVGMHHDGMHFFPLNQAGDDGLLCINHEYIDEIALHPNGPTVDATTGLRTIVDEVRKEINAHGVSVVRIKLTNNQWEVVYNDKHNRRFTGATVMDIAGPLAYSPLLETRYSPDGSQARGTLNNCGNGYTPWGTYLTCEENWPEYFVNRSTLTRDQIRIGISKTSSRYGWDDLAGQDEERLDEFSRFDVTPKGVSARDDYRNEANGHGYIVEIDPYNPTSRAIKRTALGRFRHEGCTFGKLSEGQPVVFYSGHDARFEYLYKFVSAAPWNPQDANSSNRLEIGDKYMNEGTLYAAKFNENGVGAWLPLTLDSQTTDGKTLGNSFASLADIILNTAGAADLLGATPMDRPEWCAVDPFTGSVYLTLTNNSKRTEANPANPRLKNNFGHIIRWDEADKETEFTWDIFVFGSPSDGNAETNLSGLTDLNQFASPDGLAFDKRGILWVQTDNGAEEVAEETNDQMLAIVPSTLLDSANKQTSVTAKNQMELKRFFVGPNDCEVTGFAISPDYKTVFANIQHPGNWPYSNNAAEVTPTGVVLRPRAATVVIRKLDGKEVAVLEHHHHHH
MNLKQAFIDNNSIRLGLSADTWQEAVRLAVQPLIDSKAVTSAYYDAIIASTEKYGPYYVLMPGMAMPHAEAGLGVNRNAFALITLTKPVTFSDGKEVSVLLTLAATDPSIHTTVAIPQIVALFELDNAIERLVACQSPKEVLEMVEESKDSPYLEGMDLNA
MNMEEITPVDILLQLVKMGKVDPWNIDIVDLTEKYIKMLREMQELDLRISARAILAASILVRMKSEALLRGEEEENKRGEEEKIKVDVDPLVPPLRRVERYYTLDDLIEALMDALEEAEKRKPKKKKKVEIDEEIFVVDDFRVDIEKYVEELYKVVKKIYEKTKTPIKFWDLVPDVEPKIIARTFLYLLFLENMGRVEMIQEEPFGEILVVPV
MNMPMTERIRAGKLFTDMCEGLPEKRLRGKTLMYEFNHSHPSEVEKRESLIKEMFATVGENAWVEPPVYFSYGSNIHIGRNFYANFNLTIVDDYTVTIGDNVLIAPNVTLSVTGHPVHHELRKNGEMYSFPITIGNNVWIGSHVVINPGVTIGDNSVIGAGSIVTKDIPPNVVAAGVPCRVIREINDRDKHYYFKDYKVESSV
MNNKLKTQAVEQLFQAILSLKDLDEAYDFFEDVCTINEILSLSQRFEVAKMLREHRTYLDIAEKTGASTATISRVNRSLNYGNDGYDRVFERLGMLEKESEDNK
MNNKTEQGNDAVSGQPSIKGQPVLGKDDAPVTVVEFGDYKCPSCKVFNSDIFPKIQKDFIDKGDVKFSFVNVMFHGKGSRLAALASEEVWKEDPDSFWDFHEKLFEKQPDTEQEWVTPGLLGDLAKSTTKIKPETLKENLDKETFASQVEKDSDLNQKMNIQATPTIYVNDKVIKNFADYDEIKETIEKELKGKLEHHHHHH
MNNNLQRDAIAAAIDVLNEERVIAYPTEAVFGVGCDPDSETAVMRLLELKQRPVDKGLILIAANYEQLKPYIDDTMLTDVQRETIFSRWPGPVTFVFPAPATTPRWLTGRFDSLAVRVTDHPLVVALCQAYGKPLVSTSANLSGLPPCRTVDEVRAQFGAAFPVVPGETGGRLNPSEIRDALTGELFRQG
MNNNTLSDDNLYNIENWGEGYFRINSKGNIEISKKPGKPGVELQTIVDAADRAGLHLPLLIRCSDILHDRVHRIYQAFTQAREDTCYAGNYQLVYPIKVNQEQSVVRELLKSPDNQIGLEAGSKPELMAVIGMLGDHQSTIVCNGYKDTSYIRTALIAQQMGHKVFIVIEKKSELDIILKESARLQIKPTLGVRIRLVSKSAGKWENTGGVKSKFGLNAKQVLELILQLKANDMLDCLQLMHCHLGSQIANIHDIRHCMQEVARYYIELRQLNAPIGTIDVGGGLSVDYEGTRSNKGCSMNYSLVEYATHIMLALKHLCQEAEISEPDLISESGRALTAHHAVLISNITDVEIINKAPVLPEISEDDSHVIRDIYDTYQAITDSSPTEIYNYAAHSLNEAHSLFKHGVISLQEKAKVEAFYTNICMEIKDKLDEENPSEKALLMRINECMAAKIFCNISFFQSIPDAWAIGQIFPVAPISQLNRTLSMHSILQDLTCDSDGTIKQYPGSSCVTTTLMLPSYDINNPYNIGFFLVGAYQEILGNLHNLFGDTNSLDVKLSDDGQFELDDLVSGDTVTNVLNLAHFDTKKLIQSYEKQLIKSELPKEKALSYLNELRSIFSQLTYLDGNIAQLEHHHHHH
